The source of these data is patent US10822723.

In data set [1] the target is GST-iBox, recombinant 38 amino acid Inka box, Inka1 (166-203) [GST: P08515].
For data set [2], the target named is 13aa synthetic peptide of the Inka1 iBox with Pro(0)Ser substitution.
The target of data set [3] is 13aa synthetic peptide of the Inka1 iBox-C with Pro(0)Ser substitution.
In data set [4] the target is 13aa synthetic peptide of the PAK4 AID with Pro(0)Ser substitution.

B1: 6His-PAK1 (activated), PAK1 (1-545) (protein)
chain: MSNNGLDIQDKPPAPPMRNTSTMIGAGSKDAGTLNHGSKPLPPNPEEKKKKDRFYRSILPGDKTNKKKEKERPEISLPSDFEHTIHVGFDAVTGEFTGMPEQWARLLQTSNITKSEQKKNPQAVLDVLEFYNSKKTSNSQKYMSFTDKSAEDYNSSNALNVKAVSETPAVPPVSEDEDDDDDDATPPPVIAPRPEHTKSVYTRSVIEPLPVTPTRDVATSPISPTENNTTPPDALTRNTEKQKKKPKMSDEEILEKLRSIVSVGDPKKKYTRFEKIGQGASGTVYTAMDVATGQEVAIKQMNLQQQPKKELIINEILVMRENKNPNIVNYLDSYLVGDELWVVMEYLAGGSLTDVVTETCMDEGQIAAVCRECLQALEFLHSNQVIHRDIKSDNILLGMDGSVKLTDFGFCAQITPEQSKRSTMVGTPYWMAPEVVTRKAYGPKVDIWSLGIMAIEMIEGEPPYLNENPLRALYLIATNGTPELQNPEKLSAIFRDFLNRCLEMDVEKRGSAKELLQHQFLKIAKPLSSLTPLIAAAKEATKNNH
As for B1, in data set [1], the “kinase activity, phosphorylation of GST-Raf13 (in vitro kinase assay)” value is “does not affect PAK1”.

B2: 6His-PAK4cat, recombinant catalytic domain of PAK4 (286-591) (protein)
chain: PPGPRSPQREPQRVSHEQFRAALQLVVDPGDPRSYLDNFIKIGEGSTGIVCIATVRSSGKLVAVKKMDLRKQQRRELLFNEVVIMRDYQHENVVEMYNSYLVGDELWVVMEFLEGGALTDIVTHTRMNEEQIAAVCLAVLQALSVLHAQGVIHRDIKSDSILLTHDGRVKLSDFGFCAQVSKEVPRRKSLVGTPYWMAPELISRLPYGPEVDIWSLGIMVIEMVDGEPPYFNEPPLKAMKMIRDNLPPRLKNLHKVSPSLKGFLDRLLVRDPAQRATAAELLKHPFLAKAGPPASIVPLMRQNRTR
B2: the “phosphorylation of synthetic 13mer peptides in an array” value in data set [2] was “Inka1-derived sequences were significantly better substrates”; in data set [3], “Inka1-derived sequences were significantly better substrates”; in data set [4], “The AID-based peptide was phosphorylated as efficiently as Raf1 Ser338”. In addition, the “kinase activity, phosphorylation of GST-Raf13 (in vitro kinase assay)” value in data set [1] is “is a potent of PAK4cat inhibitor in vitro”.
